In publication PMC8138766, “Defining steps in RAVE-catalyzed V-ATPase assembly using purified RAVE and V-ATPase subcomplexes” (The Journal of Biological Chemistry, 2021):
Where “and” joins values, the source holds several entries; their conditions need not be identical. Equal values may be shown once.

Biological target: RAVE–V1 complex (yeast | yeast (endogenous), UniProt P47104 1-1357; Q03956 1-351; P52286 1-194; P16140 1-517; P32610 1-256; P22203 …, VMA1 intein (284-737) spliced out; Rav2 C-terminal FLAG and Skp1 C-terminal 6xGly-6xHis tags omitted; subunit C (Vma5) only substoichiometric, so omitted; V1 copy numbers (A3B3DE3FG3H) and RAVE 1:1:1)
Test: BLI; Octet RED384, 22 °C, PBS or TBSE with 0.5 mg/ml BSA; MBP-C (5 μg/ml) captured by anti-MBP antibody on anti-mouse IgG sensors; RAVE–V1 or RAVE in solution at varied concentrations, 2400 s association and 2400 s dissociation; global single-site fit
Conditions: both partners purified

Kd: 13.6 nM and 18.1 nM
B1: maltose-binding protein (MBP)–tagged subunit C (natural protein, yeast, UniProt P31412 1-392, looked up)
chain: MATALYTANDFILISLPQNAQPVTAPGSKTDSWFNETLIGGRAFVSDFKIPEFKIGSLDTLIVESEELSKVDNQIGASIGKIIEILQGLNETSTNAYRTLPINNMPVPEYLENFQWQTRKFKLDKSIKDLITLISNESSQLDADVRATYANYNSAKTNLAAAERKKTGDLSVRSLHDIVKPEDFVLNSEHLTTVLVAVPKSLKSDFEKSYETLSKNVVPASASVIAEDAEYVLFNVHLFKKNVQEFTTAAREKKFIPREFNYSEELIDQLKKEHDSAASLEQSLRVQLVRLAKTAYVDVFINWFHIKALRVYVESVLRYGLPPHFNIKIIAVPPKNLSKCKSELIDAFGFLGGNAFMKDKKGKINKQDTSLHQYASLVDTEYEPFVMYIINL
notes: V-ATPase V1 subunit C (Vma5), yeast; MBP was not cleaved; also called MBP-C; expressed subunit C; source: E. coli Rosetta2, purified (amylose column)
